System: MS2 coat protein
Assay: apparent KD of MS2 coat protein; designed switch direction (-1 OFF switch, 1 ON switch): -1; higher = weaker reporter binding
Method in brief: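 Designed RNA switches were transcribed on Illumina chips by stalled E. coli RNA polymerase and titrated with SNAP-549-labelled MS2 coat protein from 0.7 or 1.5 nM, doubling to 3 µM. Step length ran from 0.8–1.5 h at the lowest concentration to 10–20 min at the highest. The apparent KD is the median over clusters for each design, from curve-fitted normalised cluster fluorescence.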

[1] = input ligand: microRNA oligo, concentration not stated
[2] = Eterna round: R95, input ligand: microRNA oligo, concentration not stated
[3] = Eterna round: R95, input ligand: FMN 200 uM
[4] = Eterna round: R95, input ligand: none

Sequence | apparent KD of MS2 coat protein (input ligand: FMN 200 uM) [nM] | apparent KD of MS2 coat protein (input ligand: none) [nM] | apparent KD of MS2 coat protein [1] [nM] | apparent KD of MS2 coat protein [2] [nM] | apparent KD of MS2 coat protein [3] [nM] | apparent KD of MS2 coat protein [4] [nM]
GAUUAACAUGAGGAUCACCCAUGUGAGGAUAUGGACUGGCUCACUUUUCGAUUCCCGUCUAGAAGGCACAUCUU [1986#10] (Eterna round: R97, puzzle: Exclusion 1) | 85.9 | 41.1 | – | – | – | –
GACCGGUAAGGAUAUGUAUCUUUCAGGACACUACCGAAGAUGCAGAAGGUACAUGAGGAUCACCCAUGUGGGCU [Eternabot (L1) Solution 36] (Eterna round: R97, puzzle: Exclusion 4) | 227 | 75.8 | – | – | – | –
CUUUCGUCUGUGGGUGGUGACAUGAGGAUCACCCAUGUUUUGCUCGUCUUGUGCCGGGCCCGGCGCCCGGGCCCGGC [-38.7, -62.6, A 8%] (Eterna round: R97, puzzle: Sensor, turn-off variant 1) | 861 | 992 | – | – | – | –
GCUCACGCAGGAUAUACAUGAGGAUCACCCAUGUUCGAAGGGCGCGGGUACAAAGUCUGUAGAAGGGCGAAAAU [Getiin] (Eterna round: R97, puzzle: Exclusion 3) | 26.1 | 19.8 | – | – | – | –
UUUAAUCAUGUAGGAUAUGCGUGGCGAAGCUAUGCAGAAGGACAUGAGGAUCACCCAUGUUCUAGCGUCUGCGUACAGAUGCGG [13th something] (Eterna round: R96, puzzle: Exclusion NG 1) | 229 | 39.9 | 35.3 | – | – | –
CGCAGACAUGAGGAUCACCCAUGUCAGGAUAUACCUCAUAGCACCAGCUUAUGUAAGGGUAGAAGGGACUUGGA [Eternabot (L1) Solution 81] (Eterna round: R97, puzzle: Exclusion 1) | 86.1 | 56.8 | – | – | – | –
UGAUCAGACCGAGGAUAUACAUGUAGGACCCACGUGAGUGGGUCCAUUACAUGAGGAUCACCCAUGUAGAAGGCGGUCUGAUCU [JL ENG2 1.90] (Eterna round: R96, puzzle: Exclusion NG 2) | 313 | 139 | 97.7 | – | – | –
AAACUGUGAGGAUAUGGUGAGUAGUGCCUGAGCGCUGCUCACCAGAAGGCACAUGAGGAUCACCCAUGUAUAAA [Mat - Exclusion 4 - Mod of JL - D6] (puzzle: Exclusion 4) | – | – | – | 24.2 | – | –
GUCCGGCAUGUAGGAUAUGGAUCCGAUUAGGAUUUAGAAGGACAUGAGGAUCACCCAUGUACAUUUAAUUAGUCAUUACCGGAC [EXclNG1-LROPPY03] (Eterna round: R96, puzzle: Exclusion NG 1) | 14.6 | 14.9 | 9.47 | – | – | –
UCUAUGAUGCGAGGAUAUCGACCAUUCCUCUUUACAUGAGGAUCACCCAUGUUCGUACGCUACAACGAGAAGGCGCACUAAGUU [JR_ExcNG2_Sub060] (Eterna round: R96, puzzle: Exclusion NG 2) | 292 | 157 | 131 | – | – | –
GUGCGUGGCUAGGAUAUUGAGGAAUUUAGUCAGCGAGAAGGAGCCACAUGAGGAUCACCCAUGUGGUGAAGCUC [salish99_ex6_r4_001] (Eterna round: R97, puzzle: Exclusion 6) | 70.2 | 17.9 | – | – | – | –
CUUGUGCAACAGGAUAUGUGCACGGCAGUAGCAACAGAAGGGUUGACAUGAGGAUCACCCAUGUUUACAAAGCG [Eternabot (Original) Solution 35] (Eterna round: R97, puzzle: Exclusion 6) | 132 | 137 | – | – | – | –
CCGCAAAUUGAGGAUAUCGUAUCGGAUACGAUACGAGAAGGCGAAACAUGAGGAUCACCCAUGUGUCCUAGCGG [Fiskers Ex 6 - 33] (puzzle: Exclusion 6) | – | – | – | 12 | 18.2 | 14.4
AUUAUAUAGUUAGGAUAUUGAUUAUUAUUUUAACAUGAGGAUCACCCAUGUAGCCUUAUGUAUAACAAGAAGGAACAUUUAUUA [Title] (Eterna round: R96, puzzle: Exclusion NG 2) | – | – | 97.9 | – | – | –
CUGAGCAGACGGAGAUCCAACAUGAGGAUCACCCAUGUCUCAAAAGCUUUUUGCUUGUCUUAUUCUCCUCUGUUCUC [Bieda] (puzzle: Sensor v3, turn-off variant 1) | – | – | – | 35.5 | 13.5 | 11.1
CGUACUAACACGAAAGUGUUAGUACAAUAAGCUUGUGAAACAUGAGGAUCACCCAUGUCCUCAUAAGCUCGUCUUAU [salish99_TOv2_r3_007] (Eterna round: R96, puzzle: Sensor v3, turn-off variant 2) | 15.6 | 17.9 | 486 | – | – | –
AAUGAGCGAGGAUAUGCAACUGUAUGACCUACGUGUGCCAGACAUGAGGAUCACCCAUGUAGAAGGUGCUUUCC [Israte] (puzzle: Exclusion 2) | – | – | – | 45.4 | – | –
UUAUUACAAGCAAGAUCCCACAUGAGGAUCACCCAUGUGCUCGUCUUAUAAGGUACAGUGACGAAAGUCACAGUACC [Sensor 3, v1 - 0] (Eterna round: R96, puzzle: Sensor v3, turn-off variant 1) | 23.1 | 25.9 | 369 | – | – | –

Sequence | apparent KD of MS2 coat protein (input ligand: FMN 200 uM) [nM] | apparent KD of MS2 coat protein (input ligand: none) [nM] | apparent KD of MS2 coat protein [1] [nM] | apparent KD of MS2 coat protein [2] [nM] | apparent KD of MS2 coat protein [3] [nM] | apparent KD of MS2 coat protein [4] [nM]
UGUUGUUACGCAGGAUAUGCAUGAGGAUCACCCAUGCAAUUAGAGUUAACAUGAGGAUCACCCAUGUAGAAGGGCGGGUUAACA [pwkr exNG2 2xF5 1xFMN.4] (Eterna round: R96, puzzle: Exclusion NG 2) | 82.2 | 57.6 | 45.8 | – | – | –
AUUAUGUGAGGAUAUUAGUAGUAAAUAAAUAAAAUUAUUACUGAGAAGGCACAUGAGGAUCACCCAUGUUCCUU [Salish 062 v6] (Eterna round: R97, puzzle: Exclusion 4) | 127 | 24.1 | – | – | – | –
AAGUCCGAGCGAGGAUAUUCACCUCAGUCAGCUGAAGAAGGCGCUAAGCGGUGAUUAUUUUGUACAUGAGGAUCACCCAUGUCA [Eternabot solution 49] (Eterna round: R96, puzzle: Exclusion NG 1) | 20.7 | 22.6 | 21.2 | – | – | –
ACUAAAUAAACAAGCAAUAAUCCAUCGUCUUAUACUAAAACAUGAGGAUCACCCAUGUAACAGGUGGUGUUAAAUAA [JR_Sensorv2_tov2_Sub1202] (Eterna round: R96, puzzle: Sensor v2, turn-off variant 2) | 15.4 | 19.1 | 40.6 | – | – | –
UCAUGUCCAGAGGAUAUGUAGCGGAUAAACGCAACAGAAGGCUGGACAUGAGGAUCACCCAUGUGUGCCUUCUA [Exclusion 6 Mod3 of JL of Mod of Letion by ViennaUCT] (Eterna round: R97, puzzle: Exclusion 6) | 81.3 | 227 | – | – | – | –
UCGGCGCGAGGAUAUGCGGCUGCUGCUUCGGGCCGUGGCGUACAUGAGGAUCACCCAUGUAGAAGGCGCGCCGC [Apr-15 SS2-40] (puzzle: Exclusion 2) | – | – | – | 11.3 | – | –
GCUGGUCAAGGAUAUACAUGAGGAUCACCCAUGUGAUCAGCAGUCCUCGGACUGCAAUGUAGAAGGUGACCAGC [E3/1-C1] (Eterna round: R97, puzzle: Exclusion 3) | 29.3 | 458 | – | – | – | –
CACCGUUAAGUAGGAUAUCGUACAUGAGGAUCACCCAUGUAAUAAAUGAGAAUUUCGGAUGUAUGCGAGAAGGACUAAAUCGGC [Ostricism 45 - Jieux - Exclusion NG 2] (Eterna round: R96, puzzle: Exclusion NG 2) | – | – | 39 | – | – | –
UCCAUGUCAGGAUAUCCUAGCGCAAAGUUGCCCGCGCUGCUGGAGAAGGGACAUGAGGAUCACCCAUGUCUACA [EX4 C.10] (Eterna round: R97, puzzle: Exclusion 4) | 76.8 | 23.2 | – | – | – | –
CUAUUGCGAGGAUAUGAUUUAAAUAACAUGAGGAUCACCCAUGUUUUUACGUUGUUAUGUUCAGAAGGCGUAUUGU [JR_E5_Sub024] (puzzle: Exclusion 5) | – | – | – | 41.4 | – | –
AAAACCUCUGUCAGGAUAUCCAUGCGUCCAAAAGCGGAGAAGGGACAUGAGGAUCACCCAUGUUAGCAAAAUCA [Ceenxequ] (puzzle: Brourd's mod of Exclusion 4) | – | – | – | 34.9 | 119 | 38.5
CCAACCAGAGGAUAUGCGCAUAGAUCAGACUUUGUUUCUGAACAUGAGGAUCACCCAUGUAGAAGGCUGUAACC [Ex2 #86] (Eterna round: R97, puzzle: Exclusion 2) | 26 | 27.3 | – | – | – | –
UCGGCGCGAGGAUAUGCGGCUGCUGCUUCGGGCCGUGGCGUACAUGAGGAUCACCCAUGUAGAAGGCGCGCCGC [Apr-15 SS2-40] (Eterna round: R96, puzzle: Exclusion 2) | 12.9 | 14.8 | 10.4 | – | – | –
UUUUAACAUGAGGAUCACCCAUGUGAGGAUAUCGAAAUUUAUAUUAAUAUUAAUAUAACGAGAAGGCACAUUUU [JMF 23] (puzzle: Exclusion 1) | – | – | – | 47.2 | – | –
GUUAUGUCAGGAUAUGCUAAUGAUGAGUGCUCAGACAUGAUGCAGAAGGGACAUGAGGAUCACCCAUGUACUGA [EX4 #12] (Eterna round: R97, puzzle: Exclusion 4) | 102 | 35.3 | – | – | – | –
UUGUAGGGAGGAUAUCAGAAGCUCCACAUGAGGAUCACCCAUGUAGCCGCUGCUGGAUUCUGAGAAGGCUUGGGUU [Eternabot (L2) Solution 8] (Eterna round: R97, puzzle: Exclusion 5) | 58.8 | 58.3 | – | – | – | –
GGCUAGUCAGGAUAUACGAACAUGUCAAAAGACGUGAAGGGACAUGAGGAUCACCCAUGUAGAAGGGACUAGCC [salish99_ex2_r3_004] (puzzle: Exclusion 2) | – | – | – | 21.8 | – | –
